Measurements reported in the supplement of paper PMC12042874.
± gives the uncertainty stated by the source.

assay: amyloid nucleation score (Sup35N fusion, yeast selection) (log enrichment); library NNK3; higher = more nucleation; inactive = no reads after selection
Procedure, shortened: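 Nucleation score is defined as the DiMSum log enrichment of output over input reads, with centring on the mode score of non-aggregating sequences. A minimum of 100 input reads was required for each sequence. Reads came from Illumina sequencing of plasmid inserts from psi-negative yeast expressing Sup35N fused to peptides of 20 random codons, induced with 100 μM copper sulfate for 24 hours and grown 7 days at 30°C on medium lacking adenine and uracil.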

Amyloid nucleation score, 1.23 ± 0.12:
LDIDSFYCVLR

Amyloid nucleation score, 1.07 ± 0.15:
KSLKTRYSPSVYFDFYLHYG

Amyloid nucleation score, 1.23 ± 0.18:
KTACFLVNCLNYQRAERTLR

Amyloid nucleation score, 0.771 ± 0.19:
KYSYFFVRKTMLDCSFTEAW

Amyloid nucleation score, -0.277 ± 1.1:
KGAFEMRG

Amyloid nucleation score, -0.742 ± 1.1:
LFMYMMPQGPSVTANMELVI

Amyloid nucleation score, 1.64 ± 0.11:
KSHWTTM

Amyloid nucleation score, 0.296 ± 0.87:
LCVNCLPRSLIFDSSIWRVD

Amyloid nucleation score, 2.74 ± 0.076:
LCFNCMS

Amyloid nucleation score, 0.74 ± 0.14:
LFVYVIQYVISVI

Amyloid nucleation score, 2.25 ± 0.085:
KPVLVVVSNLIPWSYPE

Amyloid nucleation score, 0.391 ± 0.34:
KMDKFPV

Amyloid nucleation score, -0.592 ± 0.76:
LFDLVYRWTWNED

Amyloid nucleation score, 0.419 ± 0.26:
LDQPGPDNLNVVNKLNFDWH

Amyloid nucleation score, 1.78 ± 0.078:
LDFVYCNAVFWTLNGFLNCA

Amyloid nucleation score, -0.487 ± 0.9:
KRVKSPNILEMVNYAQ

Amyloid nucleation score, 0.672 ± 0.32:
KPLSRSLRHSLCNRTAMIRF

Amyloid nucleation score, -0.779 ± 1.4:
LCLMDRGYVS

Amyloid nucleation score, 1.78 ± 0.084:
KICWYELNLDNSLVLLGRRY

Amyloid nucleation score, 2.75 ± 0.06:
LFVNNVVFHFIFLCPVHRTV

Amyloid nucleation score, -0.079 ± 0.38:
KPCVTFSHSAIRISVTWSTN

Amyloid nucleation score, 0.303 ± 0.2:
KGVKYMDGH

Amyloid nucleation score, 0.357 ± 0.4:
KSDEVTFMWHSHGIRMFR

Amyloid nucleation score, 0.595 ± 0.18:
LCYTPRGNKFTHLKW

Amyloid nucleation score, 0.97 ± 0.17:
KNTISCPCWYINRCLVYNNI

Amyloid nucleation score, 2.01 ± 0.053:
LFSTMFDTIENYNIGCTCGF

Amyloid nucleation score, 1.64 ± 0.12:
KEVMFR

Amyloid nucleation score, 0.751 ± 0.17:
KVMNLVRFRTDFLESNMRWC

Amyloid nucleation score, 0.863 ± 0.21:
KTIGILLNCIGWFVVGLPGS

Amyloid nucleation score, -0.291 ± 0.5:
KLILKYCIRCQNGYDSARMS

Amyloid nucleation score, 1.17 ± 0.16:
LFIWCTFFVIMFCSTTRVSI

Amyloid nucleation score, 1.65 ± 0.12:
KFDGLYNSFTVMNFAIMVYE

Amyloid nucleation score, inactive:
KDMIYSHDKLKFQKKNKHMQ
KDVRVWRLFRLD
KDVYCRGVGG
KEAVFIFSTHSGFLALFCMM
KEDCGGQVNKTSGASVSSLC
KFGEAWIIPRDRVMEVFEW
KFTMTPWDPLCLCVRSDIDL
KGFDRMMGVH
KGFFFCRTYVSSFWTKIGIF
KGFNSALLMWVLYINKQ
KGLMVNRELMGSWSRPGCSY
KGLVYSELNYYLLSWY
KGPRSGLVYGSSDHVFLA
KGQDCNVLNSNYESSIVGDL
KGSSC
KGSSSSIDTIFLYRGYFSIA
KGYSKCEDPMLECYYCTPVN
KHILFE
KHRWVQLLWCWYFTGSQYRI
KHSDL
KHVMLCCNFRKLHSATHKRT
KILQDKKMFRGFRNGRRAGI
KIVFSKSLGFLVFVMRYNQW
KIYDVFSRFKYRMQSVYKQA
KIYQYPVGRLGNCSGLHVWT
KKASVLSHVTYNRMITAWNI
KKGGVVINVSTNRIRTLTCP
KKKAGLGRDWYWTVFLMVLS
KKRSMD
KKVNDML
KLAVFYFVVLVFRGERISSC
KLKPMPNWSRLSRDWVLCCS
KLPSEISKNYT
KLQNCVKTDLHA
KLSGTLFFGSKGFVFPPYAF
KLTPRFICVMCTCLIRL
KLWKWNTGNSVVVLGLMSGV
KLYELDAVMMAWVIMY
KMRFLIALNVTTWGPKLLCG
KMRRVLLSLSVYMNCKSMVR
KMVGVKK
KNMHNPDRY
KNTVSYSATLGKVSMSERRR
KPASAGLVINAVGSGHSEMW
KPSFDPFKN
KPTIDIKCFCSWVYLKVLRG
KQLLAKTALAYEAIRPPIPI
KQSMRQSYSVPPEEVDKQGR
KQSYCVWESNYRTMYLNVCR
KQYLDLVAFIADGYRVSGDE
KRCPWVRNKSVSYLTSKYKL
KRLIVVIFKQWPARGCTTHC
KRLVMWPRLRSRYWHKRAEQ
KRSDVYVGKNCSEDMRFSNL
KRSFGRVIRDIDEYRMVRVV
KRWEPMACPDSNRDKLKECV
KRWIAHASWSSTGTWFWSGG
KRYAYAVVGGWVVGVRKHHG
KSAWLRLCIVR
KSCLCSSTKRKLNRLTYTDR
KSHPINIRPFKYIPKMLASS
KSSSFSFVASCGHAVILQKK
KSWVRGH
KTFCVVDTR
KTKVTALCNIKGNNGHFPKH
KVCRAYWYYPNFTMSRT
KVCVLVDMHSGHTVHWGLMC
KVFWHDVILTCG
KVIRESVKSLRHFKFAWLLS
KVSMPISHTQSLPVVTARCH
KVVFFTALTEPWFSPQFQGL
KVVIF
KWVFWSIYVPFTCKFNMVNR
KWWCHLWVIGVGFALGLYTG
KYICET
KYRFLSKSRMRGSACHGKDQ
KYVSECK
LAASVNYILRNIDCGVRMRF
LADLLLCDLRDCRRSAVGRM
LAFCIMNRQFLPLYLPTCSV
LAFKSDLSFNETVRKSSWLC
LANFHDITWWTWMTSHTGGS
LANTSRTGIFMDSNTDSRN
LAPFLFCRNNF
LARGDYVMKDMVLAHINDLC
LAVALIIRMSYLELGLLNPT
LAYVLKDYFNCYGVIVVISL
LAYYRPRQEWVPCNSVGLK
LCCGVCR
LCLSSCWYTRGH
LCMADYVRGTWVYVPYFWMC
LCMMMPRIIQFICHSYEHVD
LCPVGCFRCATGPFVKCDVY
LCSNLSGDVYELVSHFPGGD
LCTLYWNGARWSRCFATTFY
LCVLPMSSTRGPHNICSTLL
LDCHVS
LDEIWIKDFSMSSHVAGRHS
LDHAKRHIIVPEYLSLAKKQ
LDHIGKFLFRVTGCCITFTR
LDKCNHS
LDRCDHSIVCR
LDTYCIVDRDNRCGRNVVLY
LDVKQSSRSLREAVDVFNNH
LEERLNFGKYAVGDGYTLV
LEGLSKNQWGCLDATCSYTE
LEITALLTVRMHVDS
LEMGSGSHFSGDSWAHPLRG
LFATAEPMLRWVRSRLV
LFAYRWGIYFRLKVEYFVDS
LFCVLP
LFDILGMYEDMASVGFCIPQ
LFGDMIMVSSCWSKRNCSVA
LFKYLPCARRVQGRES
LFNGFVDTMESIVSFDNTSY
LFNTRERRYMEWPTAWRLRR
LFQIM
LFRLYRLL
LFRPSL
LFSMSVSASHHWLERSFLTR
LFSTNNYNQLWGMVGFLGFG
LFTLKLTVSKMKLWLLYGCS

Amyloid nucleation score, -0.426 ± 0.66:
LCATFMNYRVKIWSQLRY

Amyloid nucleation score, -0.2 ± 0.54:
KTTTY

Amyloid nucleation score, 1.28 ± 0.13:
KRFGFVNFNCYDLYIKFEIM

Amyloid nucleation score, 2.23 ± 0.065:
LFDVKDRSTMVVVIPCFHGS

Amyloid nucleation score, 0.592 ± 0.29:
LCPRRMA
